Data taken from the supplement of paper PMC9732359.
± gives the uncertainty stated by the source.

Experiment: protein stability index of a GFP-peptide fusion (yeast GPS) (PSI 1-4); higher = more stable; sorted into four equal gates, so the index is relative within each strain
Outline: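 Mid-log yeast cultures in leucine-free medium, carrying a pooled plasmid library, were sorted into four equal gates by their GFP/Cherry fluorescence ratio. Each plasmid expressed Cherry along with GFP fused upstream of a tiled 17-residue yeast protein peptide. Plasmids recovered from each gate were PCR-amplified and Illumina-sequenced, with reads assigned to strains by barcodes. The protein stability index was obtained by summing each gate's read frequency weighted by its gate number.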

| Sequence | protein stability index (doa10∆) | protein stability index (pdr5∆) | protein stability index (san1∆) | protein stability index (ubr1∆) |
| --- | --- | --- | --- | --- |
| QVLVCTATLAWGVNLPA [BRR2] | 1.53 ± 0.11 | 1.91 ± 0.088 | 2.1 ± 0.089 | 2.12 ± 0.059 |
| QVMEEKLDENNAQLSCI [PUP2] | 3.31 ± 0.086 | 2.69 ± 0.27 | 2.86 ± 0.19 | 3.17 ± 0.17 |
| QVPSSLIVRAKNHTHNL [RRP4] | 2.56 ± 0.076 | 2.89 ± 0.06 | 2.67 ± 0.072 | 2.87 ± 0.055 |
| QVRKKQIETINFLRLPA [YDL116W/NUP84] | 3.07 ± 0.11 | 2.89 ± 0.097 | 2.86 ± 0.07 | 2.81 ± 0.11 |
| QWFLQYQNQFVEFCRNI [YML103C/NUP188] | 2.48 ± 0.17 | 1.86 ± 0.12 | 1.89 ± 0.17 | 2.24 ± 0.1 |
| QWGKYQTFGVDILAKLF [SWI1] | 2.25 ± 0.079 | 2.54 ± 0.063 | 2.43 ± 0.062 | 2.27 ± 0.053 |
| QYTKDEQFYTKDIIDPK [RPN2] | 3.53 ± 0.13 | 3.24 ± 0.094 | 2.78 ± 0.15 | 3.29 ± 0.065 |
| QYVTQIEQEKQEQQEQD [PRE6] | 2.23 ± 0.064 | 1.93 ± 0.057 | 2.85 ± 0.058 | 1.9 ± 0.045 |
| QYYLSVLNQQLPIESQF [BRR2] | 2.28 ± 0.059 | 2.66 ± 0.059 | 2.65 ± 0.055 | 2.42 ± 0.039 |
| QYYVTQHDKMVDKIFEK [SWI1] | 2.96 ± 0.1 | 2.42 ± 0.06 | 2.68 ± 0.068 | 2.84 ± 0.034 |
| RAASAKIESSVESQFSA [RPS8A] | 3.11 ± 0.09 | 3.31 ± 0.083 | 2.53 ± 0.13 | 3.45 ± 0.14 |
| RAEALNISGEFFRNKLK [RPL16B] | – | 2.4 ± 0.25 | – | 2.9 ± 0.13 |
| RAGVCEYNEDSRLCTPI [RPN13] | 2.29 ± 0.12 | 1.86 ± 0.078 | 1.41 ± 0.2 | 2.84 ± 0.072 |
| RALRRALTKFEASQVTE [RPL35A] | – | 2.56 ± 0.14 | 3.11 ± 0.097 | 3.19 ± 0.1 |
| RANVYVGFLVQLDLTGI [PRP8] | 2.5 ± 0.05 | 2.13 ± 0.052 | 2.21 ± 0.057 | 2.45 ± 0.05 |
| RAQRVAEKRDALLKEDA [RPL19A] | 3.2 ± 0.17 | 3.04 ± 0.13 | 2.89 ± 0.14 | 3.47 ± 0.091 |
| RARVTKDLVEIKKEEGK [RPN5] | – | 3.42 ± 0.18 | 3.33 ± 0.17 | 3.59 ± 0.077 |
| RASKLKIQASDVNIIGK [RPO31] | – | 3.04 ± 0.17 | 2.7 ± 0.24 | – |
| RATPATLTELKDALSNS [SRB2] | 3.11 ± 0.12 | 3.11 ± 0.11 | 3.15 ± 0.12 | 3.42 ± 0.1 |
| RAVKEIKKFAKLHMGTD [RPL31A] | 1.7 ± 0.036 | 1.32 ± 0.041 | 1.23 ± 0.061 | 1.58 ± 0.035 |
| RAVKEIKKFAKLHMGTE [RPL31B] | 2.95 ± 0.071 | 2.94 ± 0.13 | 3.08 ± 0.08 | 2.61 ± 0.086 |
| RAVLKSFLESVIRDSVT [HHF1] | 2.62 ± 0.063 | 2.44 ± 0.052 | 1.86 ± 0.063 | 2.12 ± 0.049 |
| RAYMRPLGVILTFVSVD [SCL1] | 1.74 ± 0.049 | 1.81 ± 0.044 | 2.05 ± 0.083 | 2.16 ± 0.04 |
| RCFENLQNKSFKSVLPI [UBP6] | 2.35 ± 0.076 | 1.98 ± 0.09 | 2.05 ± 0.12 | 2.45 ± 0.057 |
| RCKIYFFYLRISKKLQF [PCI8] | 1.29 ± 0.06 | 1.31 ± 0.046 | 1.19 ± 0.093 | 1.35 ± 0.052 |
| RDEIAKNTELSYDFLPL [RPN12] | 1.54 ± 0.062 | 2.23 ± 0.072 | 1.82 ± 0.079 | 2.32 ± 0.05 |
| RDHKSYSQSPPRSPGRS [SMC4] | 2.59 ± 0.092 | 2.98 ± 0.081 | 3.01 ± 0.17 | 2.87 ± 0.052 |

| Sequence | protein stability index (doa10∆) | protein stability index (pdr5∆) | protein stability index (san1∆) | protein stability index (ubr1∆) |
| --- | --- | --- | --- | --- |
| RDLKPSNLEKLLFINSS [YML103C/NUP188] | 1.93 ± 0.11 | 1.91 ± 0.093 | 1.66 ± 0.13 | 1.69 ± 0.1 |
| REASKDNVDFILSNVDL [RPB3] | 3.49 ± 0.1 | 3.3 ± 0.085 | 3.38 ± 0.061 | 3.32 ± 0.073 |
| REGSSARTIKATLPYIK [RPB2] | 2.42 ± 0.067 | 3.17 ± 0.077 | 2.85 ± 0.061 | 2.69 ± 0.059 |
| REIQTAVRLILPGELAK [HTB1] | 3.25 ± 0.088 | 3.14 ± 0.06 | 2.55 ± 0.088 | 3.08 ± 0.051 |
| REKNSLESGKETALEFL [SMC4] | 3.47 ± 0.17 | 3.17 ± 0.11 | 3.07 ± 0.086 | 3.63 ± 0.093 |
| RELLKSQVEDFTRIFLP [SIR3] | 3.2 ± 0.053 | 3.1 ± 0.059 | 3.13 ± 0.053 | 3.33 ± 0.045 |
| REMALCRELHNKHLTTL [SSN3] | 1.62 ± 0.037 | 2.04 ± 0.041 | 1.87 ± 0.056 | 1.8 ± 0.038 |
| RENGKGGQIAHILFQNN [ROX3] | 1.88 ± 0.062 | 2.32 ± 0.06 | 2.75 ± 0.061 | 2.48 ± 0.12 |
| REPDFWVIRKQRRTNNS [MED6] | 3.51 ± 0.15 | 3.29 ± 0.09 | 2.97 ± 0.097 | 2.93 ± 0.096 |
| REPRVVSALQMLKQHLF [PUP1] | 3.1 ± 0.13 | 3.05 ± 0.094 | 3.02 ± 0.066 | 2.79 ± 0.049 |
| REQSSNDSETHTEDEST [BRN1] | – | 3.43 ± 0.27 | – | – |
| RESLIMLLEEQLEYKRG [MED7] | 2.51 ± 0.08 | 2.77 ± 0.071 | 2.42 ± 0.091 | 2.75 ± 0.057 |
| RFMKGRRSKQLINLAKT [RPC82] | 2.56 ± 0.1 | 2.78 ± 0.11 | 2.72 ± 0.074 | 2.62 ± 0.12 |
| RFTKFSDTLKEFKIEQN [YDL116W/NUP84] | 1.74 ± 0.076 | 1.74 ± 0.081 | 1.42 ± 0.18 | 1.45 ± 0.058 |
| RGFSKDLKSKADKLADM [RRP6] | 3.34 ± 0.28 | – | – | – |
| RGNTKIHSMNENPTPEK [SIR3] | 3.11 ± 0.085 | 3.15 ± 0.11 | 3.08 ± 0.056 | 3.31 ± 0.067 |
| RGTIPLLERYIGNLITR [PRP8] | 1.52 ± 0.055 | 1.55 ± 0.045 | 1.48 ± 0.08 | 1.6 ± 0.039 |
| RGYTCQFVDMVLPNTAL [FAS1] | 1.75 ± 0.075 | 1.88 ± 0.048 | 1.32 ± 0.089 | 1.53 ± 0.05 |
| RHKNKHIQGFPTLGERL [DSN1] | 3.41 ± 0.091 | 3.64 ± 0.13 | 3.37 ± 0.06 | 3.44 ± 0.076 |
| RHMVDDKIHARARGPMQ [RPB2] | 3.38 ± 0.17 | 3.48 ± 0.13 | 3.27 ± 0.16 | 2.7 ± 0.16 |
| RIIGLSATLPNYEDVGR [BRR2] | 2.23 ± 0.045 | 2.18 ± 0.039 | 2.33 ± 0.044 | 1.94 ± 0.039 |
| RILAMCVKNHGQSSSIQ [YCS4] | 2.11 ± 0.055 | 1.79 ± 0.051 | 2.13 ± 0.057 | 1.94 ± 0.054 |
| RILKNKAEYLKNCPITQ [RPC40] | 2.96 ± 0.052 | 3.12 ± 0.048 | 3.02 ± 0.04 | 2.83 ± 0.037 |
| RINTLPQVQLPVRALIV [ECM29] | – | 1.93 ± 0.26 | – | – |
| RIPFSERKLKFSNRFLP [FAS1] | 1.28 ± 0.084 | 1.17 ± 0.077 | 1.11 ± 0.13 | 1.31 ± 0.084 |
| RISEKSVRKFLEIALFK [RPO31] | 1.93 ± 0.14 | 1.15 ± 0.13 | – | – |
